In patent publication US20200330603A1, “PEPTIDES FOR RENAL THERAPY” (FRED HUTCHINSON CANCER RESEARCH CENTER, priority 2015, published 2020):
Values joined by “and” are separate entries in the source; they are usually repeats but may differ in a detail not shown here. Equal entries are not always repeated.

Experiments:
[1] = Peptide stability to a reducing agent (DTT), RP-HPLC; format: physicochemical; conditions: 10 mM DTT in PBS, room temperature, 30 minutes
Procedure: (§1) This example describes peptide stability in the presence of pepsin, trypsin, a reducing agent, or elevated temperature. Peptides were first suspended in 500 µl of ddH2O to a stock concentration of 2 mg/ml. […] These reactions were then quenched with 5 μg of soybean trypsin inhibitor (I) and, in some cases, 10 mM dithiothreitol (DTT). […] Temperature stability was tested by incubating peptides in non-reducing conditions at 70° C. for 1 hour. Stability was evaluated by RP-HPLC.

[2] = system: trypsin; experiment: Peptide stability in the presence of trypsin, RP-HPLC; format: in vitro ADME; conditions: 5 μg trypsin, pH 7.0, 30 minutes at 37.5° C.
Procedure: as §1

[3] = Whole body autoradiography of 14C labeled peptides, renal cortex and blood; format: in vivo, mice; conditions: for Signal ratio Kidney:Blood (3 hours) / Signal ratio Kidney:Blood (24 hours): renal cortex vs blood from the ventricle, 100 nmol iv; for Pixel density-Bkg/area (3 hours) / Pixel density-Bkg/area (24 hours): renal cortex, 100 nmol 14C labeled peptide iv
From the text: This example describes radiolabeling of peptides of this disclosure. Several knotted peptides were radiolabeled by reductive methylation with ^14C formaldehyde and sodium cyanoborohydride with standard techniques. The sequences were engineered to have the amino acids, “G” and “S” at the N terminus. See Methods in Enzymology V91:1983 p. 570 and JBC 254(11):1979 p. 4359. An excess of formaldehyde was used to ensure complete methylation (dimethylation of every free amine). The labeled peptides were isolated via solid-phase extraction on Strata-X columns (Phenomenex 8B-S100-AAK), rinsed with water with 5% methanol, and recovered in methanol with 2% formic acid. Solvent was subsequently removed in a blowdown evaporator with gentle heat and a stream of nitrogen gas. The final product was verified and characterized by high performance liquid chromatography (HPLC).
This example illustrates accumulation of peptides of the present disclosure in kidneys measured by whole body autoradiography. Peptides of the present disclosure were radiolabeled as described in EXAMPLE 2. 100 nmol of ^14C labeled peptides were administered intravenously in mice. Radiolabeled peptide signal was quantified in the renal cortex and blood from the ventricle in 2-3 sections per mouse in 2 mice total. Whole body autoradiography analysis was performed with AIDA.
SEQ ID NO: 55 and SEQ ID NO: 119 ([…]), a linearized version of SEQ ID NO: 55, were radiolabeled with ^14C as described in EXAMPLE 2 and administered intravenously in mice at a dose of 100 nmol. Radiolabeled peptide signal was quantified in the renal cortex and blood from the ventricle in 2-3 sections per mouse in 2 mice total. Whole body autoradiography analysis was performed with AIDA.

GSACQFWSCNSSCISRGYRQGYCWGIQYKYCQCQ [SEQ ID NO: 34]
Reduction [1]: Not Resistant | Trypsin [2]: Partially Resistant

GSAEIIRCSGTRECYAPCQKLTGCLNAKCMNKACKCYGCV [SEQ ID NO: 28]
Reduction [1]: Partially Resistant | Trypsin [2]: Not Resistant

GSAVCNLKRCQLSCRSLGLLGKCIGDKCECVKHG [SEQ ID NO: 22]
Reduction [1]: Not Resistant | Trypsin [2]: Partially Resistant

GSCIGEGVPCDENDPRCCFGLVCLKPTLHGIWYKSYYCYKK [SEQ ID NO: 30]
Reduction [1]: Not Resistant | Trypsin [2]: Partially Resistant

GSDCLPHLRRCRADNDCCGRRCRRRGTNAERRCR [SEQ ID NO: 1]
Reduction [1]: Not Resistant | Trypsin [2]: Partially Resistant

GSGDCLPHLRRCRENNDCCSRRCRRRGANPERRCR [SEQ ID NO: 59]
Signal ratio Kidney:Blood (3 hours) [3]: 31.2 | Signal ratio Kidney:Blood (24 hours) [3]: 6.1 | Pixel density-Bkg/area (3 hours) [3]: 3.47E+07 | Pixel density-Bkg/area (24 hours) [3]: 2.13E+06

GSGVPINVRCRGSRDCLDPCRRAGMRFGRCINSRCHCTP [SEQ ID NO: 55]
Signal ratio Kidney:Blood (3 hours) [3]: 42.2 and 42.4 | Signal ratio Kidney:Blood (24 hours) [3]: 10.7 | Pixel density-Bkg/area (3 hours) [3]: 2.73E+07 | Pixel density-Bkg/area (24 hours) [3]: 2.25E+06

GSGVPINVRSRGSRDSLDPSRRAGMRFGRSINSRSHSTP [SEQ ID NO: 119, reference compound]
Signal ratio Kidney:Blood (3 hours) [3]: 5.1 | Signal ratio Kidney:Blood (24 hours) [3]: 6.9 | Pixel density-Bkg/area (3 hours) [3]: 1.71E+06 | Pixel density-Bkg/area (24 hours) [3]: 2.41E+06

GSNCAGYMRECKEKLCCSGYVCSSRWKWCVLPAPWRR [SEQ ID NO: 25]
Reduction [1]: Not Resistant | Trypsin [2]: Partially Resistant

GSNFKVEGACSKPCRKYCIDKGARNGKCINGRCHCYY [SEQ ID NO: 19]
Reduction [1]: Not Resistant | Trypsin [2]: Partially Resistant

GSQFCGTNGKPCVNGQCCGALRCVVTYHYADGVCLKMNP [SEQ ID NO: 23]
Reduction [1]: Not Resistant | Trypsin [2]: Partially Resistant

GSQVQTNVKCQGGSCASVCRREIGVAAGKCINGKCVCYRN [SEQ ID NO: 17]
Reduction [1]: Not Resistant | Trypsin [2]: Partially Resistant

GSQVQTNVRCQGGSCASVCRREIGVAAGRCINGRCVCYRN [SEQ ID NO: 58]
Signal ratio Kidney:Blood (3 hours) [3]: 9.9 | Signal ratio Kidney:Blood (24 hours) [3]: 4.1 | Pixel density-Bkg/area (3 hours) [3]: 7.73E+06 | Pixel density-Bkg/area (24 hours) [3]: 1.30E+06

GSQVSTNKKCSNTSQCYKTCEKVVGVAAGKCMNGKCICYP [SEQ ID NO: 37]
Reduction [1]: Not Resistant | Trypsin [2]: Partially Resistant

GSRPTDIKCSASYQCFPVCKSRFGKTNGRCVNGLCDCF [SEQ ID NO: 24]
Reduction [1]: Resistant | Trypsin [2]: Partially Resistant

GSSCAKPGEMCMRIKCCDGQCGCNRGTGRCFCK [SEQ ID NO: 31]
Reduction [1]: Not Resistant | Trypsin [2]: Partially Resistant

GSSDYCSNDFCFFSCRRDRCARGDCENGKCVCKNCHLN [SEQ ID NO: 29]
Reduction [1]: Not Resistant | Trypsin [2]: Partially Resistant

GSSEKDCIKHLQRCRENKDCCSKKCSRRGTNPEKRCR [SEQ ID NO: 9]
Reduction [1]: Not Resistant | Trypsin [2]: Partially Resistant

GSSERDCIRHLQRCRENRDCCSRRCSRRGTNPERRCR [SEQ ID NO: 56]
Signal ratio Kidney:Blood (3 hours) [3]: 29.9 | Signal ratio Kidney:Blood (24 hours) [3]: 7.5 | Pixel density-Bkg/area (3 hours) [3]: 1.48E+07 | Pixel density-Bkg/area (24 hours) [3]: 2.30E+06

GSVRIPVSCKHSGQCLKPCKDAGMRFGKCMNGKCDCTPK [SEQ ID NO: 12]
Reduction [1]: Partially Resistant | Trypsin [2]: Not Resistant

GSVRIPVSCRHSGQCLRPCRDAGMRFGRCMNGRCDCTPR [SEQ ID NO: 57]
Signal ratio Kidney:Blood (3 hours) [3]: 8 | Signal ratio Kidney:Blood (24 hours) [3]: 6.4 | Pixel density-Bkg/area (3 hours) [3]: 4.63E+06 | Pixel density-Bkg/area (24 hours) [3]: 1.03E+06
